Test results from PMC7203109.

Experiments:
[1] = system: FLAG-ATRX-HA (full-length hATRX) (Homo sapiens); test: pull-down qPCR; details: 2 ug protein; Pull-down: 2 mM MgCl2, 100 U/ml RNase inhibitor, 0.1 mg/ml yeast tRNA, 0.05% BSA, 0.2% NP-40, 4 °C overnight, washes 150 and 15 mM NaCl; EMSA: 50 mM Tris pH …
[2] = system: GST-RBR (ATRX RNA binding region) (Homo sapiens); test: pull-down qPCR; details: 2 ug protein; Pull-down: 2 mM MgCl2, 100 U/ml RNase inhibitor, 0.1 mg/ml yeast tRNA, 0.05% BSA, 0.2% NP-40, 4 °C overnight, washes 150 and 15 mM NaCl; EMSA: 50 mM Tris pH …
[3] = system: FLAG-ATRXΔRBR-HA (Homo sapiens); test: pull-down qPCR; details: 2 ug protein; Pull-down: 2 mM MgCl2, 100 U/ml RNase inhibitor, 0.1 mg/ml yeast tRNA, 0.05% BSA, 0.2% NP-40, 4 °C overnight, washes 150 and 15 mM NaCl; EMSA: 50 mM Tris pH …
[4] = system: GST-RBR (ATRX RNA binding region) (Homo sapiens); test: competition pull-down RT-qPCR; details: Pull-down: 2 mM MgCl2, 100 U/ml RNase inhibitor, 0.1 mg/ml yeast tRNA, 0.05% BSA, 0.2% NP-40, 4 °C overnight
[5] = system: FLAG-ATRX-HA (full-length hATRX) (Homo sapiens); test: pull-down RT-qPCR; details: 2 ug protein, Pull-down: 2 mM MgCl2, 100 U/ml RNase inhibitor, 0.1 mg/ml yeast tRNA, 0.05% BSA, 0.2% NP-40, 4 °C overnight, washes 150 and 15 mM NaCl, EMSA: 50 mM Tris pH …
[6] = system: GST-RBR (ATRX RNA binding region) (Homo sapiens); test: pull-down RT-qPCR; details: Pull-down: 2 mM MgCl2, 100 U/ml RNase inhibitor, 0.1 mg/ml yeast tRNA, 0.05% BSA, 0.2% NP-40, 4 °C overnight, washes 150 and 15 mM NaCl, EMSA: 50 mM Tris pH …
[7] = system: FLAG-ATRX-HA (full-length hATRX) (Homo sapiens); test: EMSA; details: 5 mM Mg2+, yeast tRNA competitor; citation to ref 11 stands next to the value; Pull-down: 2 mM MgCl2, 100 U/ml RNase inhibitor, 0.1 mg/ml yeast tRNA, 0.05% BSA, 0.2% NP-40, 4 °C overnight, washes 150 and 15 mM NaCl; EMSA: 50 mM Tris pH …
[8] = system: FLAG-ATRX helicase domain (F6); test: pull-down RT-qPCR; details: 25 pmol protein; binds, less than GST-RBR; Pull-down: 2 mM MgCl2, 100 U/ml RNase inhibitor, 0.1 mg/ml yeast tRNA, 0.05% BSA, 0.2% NP-40, 4 °C overnight, washes 150 and 15 mM NaCl; EMSA: 50 mM Tris pH …
[9] = system: FLAG-ATRXΔRBR-HA (Homo sapiens); test: pull-down RT-qPCR; details: 2 ug protein, yeast tRNA; Pull-down: 2 mM MgCl2, 100 U/ml RNase inhibitor, 0.1 mg/ml yeast tRNA, 0.05% BSA, 0.2% NP-40, 4 °C overnight, washes 150 and 15 mM NaCl; EMSA: 50 mM Tris pH …

Substance	binding signal [1] [% input]	binding signal [2] [% input]	binding signal [3] [% input]	binding signal ([6]; 0.5 ug protein) [% input]	binding signal ([6]; 1 ug protein) [% input]	binding signal ([6]; 2 ug protein, yeast tRNA) [% input]	binding signal ([6]; 2 ug protein) [% input]	binding signal ([6]; 3 ug protein) [% input]	further results
MBP DNA, 300 bp	0.197	0.000184	0.185						
MBP RNA, 300 nt				0.142	0.189	0.974	0.183	0.22	binding signal ([4]; mixed with 5 ug Repeat A RNA, washes 150 and 15 mM NaCl, EMSA: 50 mM Tris pH …): 0.0666 % input; binding signal [5]: 1.28 % input
Xist Repeat A DNA, 435 bp	0.478	0.002	0.23						
Xist Repeat A RNA, 192-nt fragment									Kd [7]: 17.9 nM
Xist Repeat A RNA, 435 nt				0.342	1.99	3.08	2.92	9.29	binding signal ([4]; mixed with 5 ug MBP RNA, washes 150 and 15 mM …, EMSA: 50 mM Tris pH 8.0): 3.04 % input; binding signal ([5]; yeast tRNA): 8 % input; binding signal ([6]; 25 pmol protein): 1.8 % input; binding signal [8]: 0.741 % input; binding signal [9]: 3.43 % input
